# Measured values reported in PMC2175347 (Nucleic Acids Research, 2007).
# Tested on: HP1α
# Experiment: Immunofluorescence co-localization with HP1α in COS-7 cells
# Assay type: cell-based
# Details: 48 h after transfection, Figure 6
molecule,measurement,value
"GFP-G9amut (protein, UniProt Q9Z148 1-1263, looked up, variant K233A K239A K243A, full-length GFP fusion) MRGLPRGRGLMRARGRGRAAPTGGRGRGRGGAHRGRGRPRSLLSLPRAQASWAPQLPAGLTGPPVPCLPSQGEAPAEMGALLLEKEPRGAAERVHSSLGDTPQSEETLPKANPDSLEPAGPSSPASVTVTVGDEGADTPVGAASLIGDEPESLEGDGGRIVLGHATKSFPSSPSKGGACPSRAKMSMTGAGKSPPSVQSLAMRLLSMPGAQGAATAGPEPSPATTAAQEGQPAVHRARATMSAPSNGQPPIPEKRPPEVQHFRMSDDMHLGKVTSDVAKRRKLNSGSLSEDLGSAGGSGDIILEKGEPRPLEEWETVVGDDFSLYYDAYSVDERVDSDSKSEVEALAEQLSEEEEEEEEEEEEEEEEEEEEEEEEEDEESGNQSDRSGSSGRRKAKKKWRKDSPWVKPSRKRRKREPPRAKEPRGVNGVGSSGPSEYMEVPLGSLELPSEGTLSPNHAGVSNDTSSLETERGFEELPLCSCRMEAPKIDRISERAGHKCMATESVDGELLGCNAAILKRETMRPSSRVALMVLCEAHRARMVKHHCCPGCGYFCTAGTFLECHPDFRVAHRFHKACVSQLNGMVFCPHCGEDASEAQEVTIPRGDGGTPPIGTAAPALPPLAHDAPGRADTSQPSARMRGHGEPRRPPCDPLADTIDSSGPSLTLPNGGCLSAVGLPPGPGREALEKALVIQESERRKKLRFHPRQLYLSVKQGELQKVILMLLDNLDPNFQSDQQSKRTPLHAAAQKGSVEICHVLLQAGANINAVDKQQRTPLMEAVVNNHLEVARYMVQLGGCVYSKEEDGSTCLHHAAKIGNLEMVSLLLSTGQVDVNAQDSGGWTPIIWAAEHKHIDVIRMLLTRGADVTLTDNEENICLHWASFTGSAAIAEVLLNAQCDLHAVNYHGDTPLHIAARESYHDCVLLFLSRGANPELRNKEGDTAWDLTPERSDVWFALQLNRKLRLGVGNRAVRTEKIICRDVARGYENVPIPCVNGVDGEPCPEDYKYISENCETSTMNIDRNITHLQHCTCVDDCSSSNCLCGQLSIRCWYDKDGRLLQEFNKIEPPLIFECNQACSCWRSCKNRVVQSGIKVRLQLYRTAKMGWGVRALQTIPQGTFICEYVGELISDAEADVREDDSYLFDLDNKDGEVYCIDARYYGNISRFINHLCDPNIIPVRVFMLHQDLRFPRIAFFSSRDIRTGEELGFDYGDRFWDIKSKYFTCQCGSEKCKHSAEAIALEQSRLARLDPHPELLPDLSSLPPINT",co-localization with HP1α,did not co-localize with HP1α
